Measured values from publication doi:10.1101/2023.07.17.549240.

Tests used:
WRKY45 [1] = target: T1, WRKY45 (Arabidopsis thaliana, UniProt Q9S763 1-147); experiment: EMSA
WRKY45 [2] = target: T1, WRKY45; experiment: competition

T1 sequence (Q9S763 whole entry): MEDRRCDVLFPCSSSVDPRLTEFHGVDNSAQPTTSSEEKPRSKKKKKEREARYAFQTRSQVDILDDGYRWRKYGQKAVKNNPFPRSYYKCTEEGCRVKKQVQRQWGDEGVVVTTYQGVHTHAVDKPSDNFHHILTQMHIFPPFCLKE

B1: PCS2 W-box1 (W1) probe (dsDNA)
DNA 1: ATTGTCAGAGTTTGACTATGGAGCAAAC
DNA 2: GTTTGCTCCATAGTCAAACTCTGACAAT
B1: binds (WRKY45 [1]).

B2: PCS2 mW-box1 probe (dsDNA)
DNA 1: ATTGTCAGAGTCGCGGAATGGAGCAAAC
DNA 2: GTTTGCTCCATTCCGCGACTCTGACAAT
B2: no binding (WRKY45 [1]).

B3: PCS1 W-box probe (dsDNA)
DNA 1: TACAATCCAAATTGACTGTAATTTGTTA
DNA 2: TAACAAATTACAGTCAATTTGGATTGTA
B3: no binding (WRKY45 [1]).

B4: PCS2 W-box1 cold competitor (dsDNA)
DNA 1: ATTGTCAGAGTTTGACTATGGAGCAAAC
DNA 2: GTTTGCTCCATAGTCAAACTCTGACAAT
B4: binds (WRKY45 [2]).
